Measurements reported in the supplement of paper PMC9170038.

test system: K4 kissing-loop RNA reporter; test: apparent KD of K4 kissing-loop reporter; higher = weaker reporter binding; conditions: Eterna round: R107; input ligand: none
Method: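 RNA-MaP round R107: designed RNA switches with theophylline, tryptophan, arginine or FMN aptamers are transcribed on-chip within common flanks. They are titrated with a labelled K4 kissing-loop RNA reporter in RNA-MaP buffer (100 mM Tris pH 7.5, 80 mM KCl, 4 mM MgCl2), without ligand or with the indicated ligand. Median apparent KD per design.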
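Further: bound reporter read as fluorescence of individual clusters on recovered sequencing chips by microscopy, with normalized cluster intensities fitted with a binding model.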

Going from “AUGCGUUGCACGGCCGCCACUGAUAUUAUGCUUCAGGAUGCUUCUGAAAGUGAUGUUUUCAGAUCCAGGACCGGGUGCCAAGAUU [theeternabot_sameState_KL_Trp_B_17]” to “GAAUUUGCCGAUCAAAGUGAUGUUUUGGAUACCAGCCAUCAAGCUGGCCCUUGGCAGCCAACGUCGGCUGGCGACCGUGCGGACU [theeternabot_exclusion_KL_Theo_A_50]”, the “apparent KD of K4 kissing-loop reporter” value rises from 0.0983 µM to 0.347 µM (3.5-fold).

“AAUACACUGUCGGCCGCCACUCUCGGCUGCAGUGUGCAGGGACAUGAGUGAUGUUUAUGUCGCGUGAGGACCGGGACUGAUGUAU [KL-SSTryp-B1 #analogue]” and “UUUAACGAGUGAUGUUCGAAGAGUAAGGGUGAGGAUAUCGAUUUUUCGAGAAGGCGCCUCGAAGUGAUACGAAAGUAUCGCUUCG [FMN A 7]” are within 1.5-fold of each other in “apparent KD of K4 kissing-loop reporter” value: 0.312 µM for the first, 0.269 µM for the second.

Going from “UGCAUGCUAGUAGUGAUGUUACAUGAUGAUACCAGUGCUUUUUUGCACCCUUGGCAGCGUCAUUUUGCAUGCACGUCGAAAGACG” to “GCAACAUUGGAAGGAUAUCAUUCUGAGUGAUGUUCAGGGUUCAGCUAACGAAAGUUAGUUGUACCAUGAGAAGGUCUAAUGUUGC [Omei KL FMN B SS A v4]”, the “apparent KD of K4 kissing-loop reporter” value rises from 0.565 µM to 1.61 µM (2.8-fold).

“UUCAGGUGUUCGGCCGCCACUCCAGUGAUGUUGGAGUGGCUUCACAAGGGCCAGGACAAUGUAAGGAGGACCGGGAAUAUCUCAG [Onisle]” and “UGCAGUGAUGUUGCUAUUUGUCUUGAUAAACGAGGACCGGUACGGCCGCCACUCGAUUUCUCUCUUAUCGGGUAUGUUGUUUAGU [#21 K4 Tryptophan A Exclusion]” are within 1.5-fold of each other in “apparent KD of K4 kissing-loop reporter” value: 0.132 µM for the first, 0.172 µM for the second.

First: AGAGUCGGCUGUGAUACCAGUCGUAUAACAACAUGUCGCAGUGAUGUUGCGAGAUAGGAUGACCCUUGGCAGCACUCAGUACGAU [Same State Theophylline B GF 7]
Second: UGAUAGGACAGAAGGAGCGGUAGUGAUGUUGCCAAAAGGAUAAGGUGUCAAAAGACACCCUACCAGGUAGGUCGCUGUCCUAUCU
The “apparent KD of K4 kissing-loop reporter” value of the first is 2.3-fold higher: 0.347 µM for the first, 0.154 µM for the second.

First: UUUAUAUAGUCGGCCGCCACUGAUUUUUAUAUAUGUUUAUGUUUAUACGAGUGAUGUUCGAUAUACAGGACCGGGACUUUUGUUA [JR_SSTryptoB_Sub017]
Second: GCGUCGCAGGUCGCAGUACCAUCGCGGGAUACCAGCCCUGCUACCGGCCCUUGGCAGCCCGGUUAUCGGUUAGUGAUGUUAGCCA [theeternabot_sameState_KL_Theo_A_44]
The “apparent KD of K4 kissing-loop reporter” value of the first is 2.5-fold lower: 0.294 µM for the first, 0.739 µM for the second.

Compared with “GUAUGUGGAAACACGUACUUGUAUCCUAAGCAGGAUAUGCGGAAACGCAGAAGGGCUACCAACGAGUUUAUCCAGUGAUGUUGGA [Ex FMN A 13]”, “GUUACGCAUGGAAGGAGCGCAUGCUCAGCUAUAAGCUCAGUGAUGUUGAGCAUUUUUUUUUUGCAGGUAGGUCGCCAUGUGUAAC [Ex Arginine B K4 30]” is 1.5-fold lower in “apparent KD of K4 kissing-loop reporter” value: 0.332 µM for the first, 0.218 µM for the second.

Compared with “UGGACCUGACUCGAUACGAGUCAAUGAGAUACCAGCCACGAAAGUGGCCCUUGGCAGCUCUGCCAGUGAUGUUGGUCAAGGUCCU [#SwitchBubble 9 #StaticStem]”, “AAAUAGGAGUAAAUAAACAAUUUCCUUAGAGAGGAUAUUGGUAAUACAAGAAGGCUCUGUUGGGAGUGAUGUUCCCAUAACGCCU [Exclusion FMN A GF13]” is 27-fold lower in “apparent KD of K4 kissing-loop reporter” value: 1.53 µM for the first, 0.0566 µM for the second.

Compared with “ACAGAGUGAUGUUUUGUAAAGAUCUUUGAUACCAGCGCCAGAAAUCGCCCUUGGCAGCAAGCCGUACAUACGUUGAUUGAUCCAC [theeternabot_exclusion_KL_Theo_A_14]”, “ACGCGCGCGAGUGAUGUUCGGAGCGGCUGGCAGGAUAUGUAGCAAUGCAGAAGGGUCGUGGCGGCGCGGCCGUAAGGCGGCGCCG [#2 Exclusion - FMN A Attempt #14 (HarryS)]” is 2.3-fold lower in “apparent KD of K4 kissing-loop reporter” value: 0.926 µM for the first, 0.404 µM for the second.

“GGACGAGUGAUGUUCGUUAUUAUGCAUUCAGAGGAUAUAGGAUUAGCUAGAAGGCUGAAUCAAUCUUCGAGUGAUGUUCGAGGAU [Same State FMN A GF 10]” and “UGAUAAUGCAGUGAUGUUGCUAGAAACGAUACCAGUUAAGAAAAGAACCCUUGGCAGCGUAAAGUGCGCUCUAAUGAGUGUGCUU [#10 K4 Theophylline A Same State]” are within 1.5-fold of each other in “apparent KD of K4 kissing-loop reporter” value: 0.154 µM for the first, 0.194 µM for the second.

For “GCAUCCGAUGCAGGAUAUAGAUGAACGAGUGAUGUUUGGAAUUUAUGUCCAAAGCCUACGAUCAGACUAGAAGGGCAUCGGAUGC”, the “apparent KD of K4 kissing-loop reporter” value was 0.122 µM.

same assay, conditions: Eterna round: R107; input ligand: theophylline 20 uM

Compared with “UAGUCCUAGUGAUCCUUAUCAAGUGGUGGGCGAGGACCGGUACGGCCGCCACUCGAAUAUGCAGUGAUGUUGUAAUCCGGACAAU [Exclusion - Tryptophan A (Freestyle 11)]”, “GGAUAGGACAGAGGAUAUGGUGCUAGGCAAGAAUAACUUGUCUAGCAAUCCAUGAGGAGUGAUGUUCCAGAAGGCUGUCCUAUCG [FmnBX 3 - #SwitchBubble #StraticStem #DoubleMagnetSystem]” is 6.6-fold lower in “apparent KD of K4 kissing-loop reporter” value: 0.899 µM for the first, 0.136 µM for the second.

First: CCAUAUUCGUCGGCCGCCACUAUAAGCCAUCAUACAUUGGCUCUGUGAAAGUGAUGUUUUCUUGAUAGGACCGGGACUGUCAGCA [theeternabot_sameState_KL_Trp_B_24]
Second: UUUUAAUGCAGUGAUGUUGCAAAUAAAACAGAGGAUAUGCAUGGAAGCAGAAGGCUGAUAUGUCGUACUUCGACAUAUUAUAUUU [JR_SSFMNA_Sub012]
The “apparent KD of K4 kissing-loop reporter” value of the first is 7.5-fold higher: 0.903 µM for the first, 0.121 µM for the second.

Going from “AGUCCACUCUAAAGAGUGGACCUAAGGGAUACCAGUGAUGUUGGUCACCCUUGGCAGCCCAGGGCCCGGCGAAUAGCCGGGCCCA [#10 K4 Theophylline A Exclusion]” to “AAAUUUAAUAUAUUUAAUUAAUUAUGUGAUACCAGACAUUUAUAAGUCCCUUGGCAGCACAAUGCAGUGAUGUUGCAUAUAAUAA [JR_SSTheophyA_Sub012]”, the “apparent KD of K4 kissing-loop reporter” value falls from 0.121 µM to 0.0775 µM (1.6-fold).

First: GUUAUGGACCUGGAUACCAGCUGGUACUAAGUGGGAAAAUGAAAGUGAUGUUUUCGUGCUAGCCCUUGGCAGCCAGCAACCCGCA [XTheo-B6]
Second: UAUUAAUUGUCAGGAUAUCGAAAUCGAGUGAUGUUCGUAAAUUAAUUAUUAUUAAUAAUAUUUAUACGAGAAGGGACAUUAUUUA [JR_SSFMNB_Sub002]
The “apparent KD of K4 kissing-loop reporter” value of the first is 5.9-fold lower: 0.133 µM for the first, 0.78 µM for the second.

“AACGUUUUGUGAAGGAGCGCGAAAAGCAGUGAUGUUGCUUACUUACAAUUUAGAUUUAACACGCAGGUAGGUCGCACAAUACGUA [JR_SSArginiB_Sub016]” and “GGCAGUGAUGUUGCCAGUGGCGGAUGCGAAGGAGCGCGGUGAGACGCAGGUAGGUCGCGCAUUGAAAUUGCUGUCACUAGGAUGC [whbob_Ex_Arginine_A_2t129]” are within 1.5-fold of each other in “apparent KD of K4 kissing-loop reporter” value: 0.259 µM for the first, 0.313 µM for the second.

“UUUUUUAAGAUGUCGACCAACCCGAAGCUACGAGGACCGGUACGGCCGCCACUCGCCAGUGAUGUUGGCGACUGGUGAAACCAUG [Ceesaror]” and “AAGGCCACGAGAAGGAGCGUGUUGUGGAGUGAUGUUCCAUUGUAGACCUAAGGUCUGCAAGCACAGGUAGGUCGCUCGUGGUCAA [whbob_SS_Arginine_B_2t149]” are within 1.5-fold of each other in “apparent KD of K4 kissing-loop reporter” value: 0.103 µM for the first, 0.138 µM for the second.

Compared with “AAGGUUGUGCAUGGGAGUGAUGUUCCCAAGCAGGAUAUCGCUCACGCGAGAAGGGCUUGCACAACCGCUCAAGAAACUUGAGCAA [Omei KL FMN A SS C v6]”, “GGUAGCAUGGCGGCCGCCACUUCAAGUGGAGUGAUGUUCCGCGGCAUCGCGAAAGCGAUGCCUGGAAGGACCGGGCCAUGCUACC” is 4-fold higher in “apparent KD of K4 kissing-loop reporter” value: 0.2 µM for the first, 0.797 µM for the second.

Compared with “UGGAGGAAUCGACCUCGAAAGAGGAUGGAUACCAGAGAAGAAAUUCUCCCUUGGCAGCCAGUGAUGUUGGAACCUCCUAAAUAAA [#SwitchBubble 18 #K4Late]”, “GGAUAGGAUAGAGGAUAUGGGCUAGGCAAGAAUAACUUGUCUAGUAAAUCCAUGAGGAGUGAUGUUCCAGAAGGCUGUCCUAUCG [MatMod 2 - Jieux - Exclusion - FMN B]” is 1.9-fold lower in “apparent KD of K4 kissing-loop reporter” value: 0.354 µM for the first, 0.182 µM for the second.

First: CUACGACAGGAAGGAUAUCGUGUGGAGAGCAGUUAUUUAAAGGUAGUGAUGUUACAGGAGACUGUUCGAGAAGGUCCUCAGUUAC [theeternabot_exclusion_KL_FMN_B_32]
Second: UGACAUUGCUCAGAUACCAGACUUGAGGAACACCCAAGUGCCAAAACGUACUAAAUAAAAGUCCCUUGGCAGCUGAGCAAUGUCU [TheoBX 13]
The “apparent KD of K4 kissing-loop reporter” value of the first is 1.5-fold higher: 0.0933 µM for the first, 0.0609 µM for the second.

First: CGAGAGGUCUUGUUUGGAUGUGUUUUAUGGCGAGGACCGGUACGGCCGCCACUCGGGUGAUGUUAGUGAUGUUGAUGUAGUGAUG [dcdmullin]
Second: AAAUAAAGCAGUCACCCAGUGAUGUUGGAAGGAGCGUGCGAAAGCACAGGUAGGUCGCCAAAAUAAAAGUGGCUGCGGCAAAGCC [#SwitchBubble 24 #K4Early]
The “apparent KD of K4 kissing-loop reporter” value of the first is 2.1-fold lower: 0.162 µM for the first, 0.338 µM for the second.

Compared with “CUUGUACAAGUGAUGUUUGUUAUAUCCGAAGGAGCGUCGUAAUAGACAGGUAGGUCGCGGAGUUAGCUGGUUUUUUUAACAGCUA [JR_Nu_SSArginiA_Sub030]”, “AUGCGUUGCACGGCCGCCACUGAUAUUAUGCUUCAGGAUGCUUCUGAAAGUGAUGUUUUCAGAUCCAGGACCGGGUGCCAAGAUU [theeternabot_sameState_KL_Trp_B_17]” is 5.1-fold lower in “apparent KD of K4 kissing-loop reporter” value: 0.472 µM for the first, 0.0923 µM for the second.

“GAAUUUGCCGAUCAAAGUGAUGUUUUGGAUACCAGCCAUCAAGCUGGCCCUUGGCAGCCAACGUCGGCUGGCGACCGUGCGGACU [theeternabot_exclusion_KL_Theo_A_50]” and “AAUACACUGUCGGCCGCCACUCUCGGCUGCAGUGUGCAGGGACAUGAGUGAUGUUUAUGUCGCGUGAGGACCGGGACUGAUGUAU [KL-SSTryp-B1 #analogue]” are within 1.5-fold of each other in “apparent KD of K4 kissing-loop reporter” value: 0.31 µM for the first, 0.326 µM for the second.

“UUUAACGAGUGAUGUUCGAAGAGUAAGGGUGAGGAUAUCGAUUUUUCGAGAAGGCGCCUCGAAGUGAUACGAAAGUAUCGCUUCG [FMN A 7]” and “UGCAUGCUAGUAGUGAUGUUACAUGAUGAUACCAGUGCUUUUUUGCACCCUUGGCAGCGUCAUUUUGCAUGCACGUCGAAAGACG” are within 1.5-fold of each other in “apparent KD of K4 kissing-loop reporter” value: 0.269 µM for the first, 0.345 µM for the second.

Compared with “GCAACAUUGGAAGGAUAUCAUUCUGAGUGAUGUUCAGGGUUCAGCUAACGAAAGUUAGUUGUACCAUGAGAAGGUCUAAUGUUGC [Omei KL FMN B SS A v4]”, “UUCAGGUGUUCGGCCGCCACUCCAGUGAUGUUGGAGUGGCUUCACAAGGGCCAGGACAAUGUAAGGAGGACCGGGAAUAUCUCAG [Onisle]” is 16-fold lower in “apparent KD of K4 kissing-loop reporter” value: 1.22 µM for the first, 0.0773 µM for the second.

Compared with “UGCAGUGAUGUUGCUAUUUGUCUUGAUAAACGAGGACCGGUACGGCCGCCACUCGAUUUCUCUCUUAUCGGGUAUGUUGUUUAGU [#21 K4 Tryptophan A Exclusion]”, “AGAGUCGGCUGUGAUACCAGUCGUAUAACAACAUGUCGCAGUGAUGUUGCGAGAUAGGAUGACCCUUGGCAGCACUCAGUACGAU [Same State Theophylline B GF 7]” is 2-fold higher in “apparent KD of K4 kissing-loop reporter” value: 0.205 µM for the first, 0.404 µM for the second.

For “UGAUAGGACAGAAGGAGCGGUAGUGAUGUUGCCAAAAGGAUAAGGUGUCAAAAGACACCCUACCAGGUAGGUCGCUGUCCUAUCU”, the “apparent KD of K4 kissing-loop reporter” value was 0.179 µM.
